For test [1], the target named is T1, GC-3 (GST fusion of GPC3 Ala524 to Lys563) (human, UniProt P51654 524-563).
T1 construct: not shown: GST as encoded by pGEX-4T-3 (Amersham), N-terminal to the GPC3 peptide
T1 chain: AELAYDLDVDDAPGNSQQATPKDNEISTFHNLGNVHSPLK
The experiment in a line: Western blotting of GST-fusion proteins.

Test [2] has as its target T2, full-length human GPC3 (human, UniProt P51654 25-554).
T2 construct: On CHO (DXB11) or SK-HEP-1 (SK-03) transfectants; also used here for the GPC3 on the hepatoma lines HepG2 and HuH-7; also called human glypican 3
The test can be described thus: flow cytometry, antibody at 5 µg/mL, HepG2 cells. A general note: A flow cytometer gives signals particle by particle.

Test [3] deals with T3, soluble form of GPC3 core protein (human, UniProt P51654 25-563).
T3 construct: not shown: His tag added to the C-terminus
The test can be described thus: ELISA on plate coated with soluble GPC3 core protein. In general terms: ELISA stands for enzyme-linked immunosorbent assay.

Test [4] concerns the target T2, full-length human GPC3. The experiment in a line: flow cytometry, antibody at 5 µg/mL, CHO cells expressing human GPC3 (column CHO/human GPC3).
Test [5] deals with T2, full-length human GPC3. The experiment in a line: flow cytometry, antibody at 5 µg/mL, HuH-7 cells.
Test [6] has as its target T3, soluble form of GPC3 core protein. The test can be described thus: ELISA on plate coated with soluble GPC3 core protein; antibody from COS7 culture supernatant [upper left panel].
Test [7] has the same target. The experiment in a line: ELISA on plate coated with soluble GPC3 core protein; antibody from COS7 culture supernatant [middle right panel].
The target is the same in test [8]. The test can be described thus: ELISA on plate coated with soluble GPC3 core protein; antibody from COS7 culture supernatant [lower left panel].
Test [9] has the same target. The test can be described thus: competitive ELISA on coated soluble GPC3 core protein; labelled competitor biotin-M3C11.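 Further: Biotin-labelled antibody added as 10 µL at 10 µg/mL for 1 h.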
Test [10] concerns the target T2, full-length human GPC3. The test can be described thus: flow cytometry, antibody at 5 µg/mL, CHO cells expressing human GPC3 (column CHO/human GPC3). This is another data set of the same source.
The target of test [11] is T3, soluble form of GPC3 core protein. The test can be described thus: competitive ELISA on coated soluble GPC3 core protein; labelled competitor biotin-L9G11.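 Further: Biotin-labelled antibody added as 10 µL at 10 µg/mL for 1 h.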
The target is the same in test [12]. The test can be described thus: competitive ELISA on coated soluble GPC3 core protein; labelled competitor biotin-M5B9.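 Further: Biotin-labelled antibody added as 10 µL at 10 µg/mL for 1 h.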
Test [13] shares this target. The experiment in a line: competitive ELISA on coated soluble GPC3 core protein; labelled competitor biotin-M11F1.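 Further: Biotin-labelled antibody added as 10 µL at 10 µg/mL for 1 h.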
Test [14] shares this target. The experiment in a line: competitive ELISA on coated soluble GPC3 core protein; labelled competitor biotin-M1E7.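 Further: Biotin-labelled antibody added as 10 µL at 10 µg/mL for 1 h.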
For test [15], the target named is T2, full-length human GPC3. The experiment in a line: BIACORE; the form of GPC3 used is not given.
Test [16] addresses T3, soluble form of GPC3 core protein. The test can be described thus: competitive ELISA on coated soluble GPC3 core protein; labelled competitor biotin-M10D2.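 Further: Biotin-labelled antibody added as 10 µL at 10 µg/mL for 1 h.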
Test [17] concerns the target T4, secreted form of GPC3 in the culture supernatant of HepG2 (human, UniProt P51654 25-358, limits assumed).
T4 construct: also called secretory GPC3; secreted form of GPC3 of 40 kDa
The experiment in a line: immunoprecipitation of the culture supernatant of HepG2, detection of secreted GPC3.

Test [18] addresses T2, full-length human GPC3. The test can be described thus: flow cytometry, antibody at 5 µg/mL, HepG2 cells. The source holds these as a separate data set.
Test [19] has as its target T3, soluble form of GPC3 core protein. The test can be described thus: competitive ELISA on coated soluble GPC3 core protein; labelled competitor biotin-M18D4.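 Further: Biotin-labelled antibody added as 10 µL at 10 µg/mL for 1 h.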
Test [20] addresses T1, GC-3 (GST fusion of GPC3 Ala524 to …). The experiment in a line: Western blotting of GST-fusion proteins, reducing SDS-PAGE.
Test [21] concerns the target T2, full-length human GPC3. The experiment in a line: flow cytometry, antibody at 5 µg/mL, HuH-7 cells. This is another data set of the same source.
Test [22] concerns the target T3, soluble form of GPC3 core protein. The test can be described thus: ELISA on plate coated with soluble GPC3 core protein. This is another data set of the same source.
Test [23] has the same target. The experiment in a line: competitive ELISA on coated soluble GPC3 core protein; labelled competitor biotin-M6B1.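 Further: Biotin-labelled antibody added as 10 µL at 10 µg/mL for 1 h.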

Residue numbers refer to the chain shown, from its start. Names may count otherwise. Where two headings read alike, the source gives them in different places.

These results are taken from patent US20100248359A1 (Chugai, published 2010).

T2 sequence (P51654 25-554 limits assumed): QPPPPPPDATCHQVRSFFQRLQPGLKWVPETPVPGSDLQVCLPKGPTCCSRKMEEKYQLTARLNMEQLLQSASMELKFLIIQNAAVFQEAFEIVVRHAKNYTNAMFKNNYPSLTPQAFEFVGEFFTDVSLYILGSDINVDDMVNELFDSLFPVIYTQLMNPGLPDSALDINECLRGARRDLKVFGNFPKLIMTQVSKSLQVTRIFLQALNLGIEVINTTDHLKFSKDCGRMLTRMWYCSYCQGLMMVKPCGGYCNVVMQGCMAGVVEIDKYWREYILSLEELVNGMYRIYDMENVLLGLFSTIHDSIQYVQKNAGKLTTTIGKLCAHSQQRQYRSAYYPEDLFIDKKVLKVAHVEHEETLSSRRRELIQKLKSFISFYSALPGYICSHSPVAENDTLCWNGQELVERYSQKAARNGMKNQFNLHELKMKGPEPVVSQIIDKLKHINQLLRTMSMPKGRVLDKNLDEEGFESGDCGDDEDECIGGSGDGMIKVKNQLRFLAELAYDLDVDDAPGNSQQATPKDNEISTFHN
T4 sequence (P51654 25-358 limits assumed): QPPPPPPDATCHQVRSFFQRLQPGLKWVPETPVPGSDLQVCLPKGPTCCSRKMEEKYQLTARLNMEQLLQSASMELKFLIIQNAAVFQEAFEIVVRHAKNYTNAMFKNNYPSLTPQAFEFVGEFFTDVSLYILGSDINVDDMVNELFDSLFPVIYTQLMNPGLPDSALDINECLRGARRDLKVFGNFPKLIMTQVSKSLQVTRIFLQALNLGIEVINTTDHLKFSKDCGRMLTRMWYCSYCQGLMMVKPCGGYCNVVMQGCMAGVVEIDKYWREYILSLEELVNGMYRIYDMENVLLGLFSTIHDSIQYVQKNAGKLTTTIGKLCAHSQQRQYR

B1: GC179 (antibody, V domains shown)
VH: EVQLVETGGGLVQPEGSLKLSCAASGFSFNINAMNWVRQAPGKGLEWVARIRSESNNYATYYGDSVKDRFTISRDDSQNMLYLQMNNLKTEDTAIYYCVREVTTSFAYWGQGTLVTVSA
VL: DIVMTQSAPSVPVTPGESVSISCKSSKSLLHSNGNTYLNWFLQRPGQSPQLLIYWMSNLASGVPDRFSGSGSGTAFTLRISRVEAEDVGVYYCMQHIEYPFTFGTGTKLEIK
notes: Mouse monoclonal from a mouse immunized with GC-3
One may read the EC50 as the concentration needed to bring the measured effect to its halfway point. As to B1, in [1], the binding result is listed as “binds”. Besides, the “FACS X-mode value of the histogram” value in [2] came to 6.5; in [4] it was 7.1; in test [5] it was 3.8. The molecule also showed a half-maximal effective concentration (EC50) in test [3] of 5.61 nM.

B2: modified humanized GC33 (H chain ver.k, L chain G34A) (antibody, human IgG1, V domains shown)
VH: QVQLVQSGAEVKKPGASVKVSCKASGYTFTDYEMHWVRQAPGQGLEWMGALDPKTGDTAYSQKFKGRVTLTADKSTSTAYMELSSLTSEDTAVYYCTRFYSYTYWGQGTLVTVSS
VL: DVVMTQSPLSLPVTPGEPASISCRSSQSLVHSNANTYLHWYLQKPGQSPQLLIYKVSNRFSGVPDRFSGSGSGTDFTLKISRVEAEDVGVYYCSQNTHVPPTFGQGTKLEIK
notes: COS7 supernatant; human IgG1/kappa
In general, EC50 (read off the curve) refers to the concentration at which the effect is half-maximal. A lower EC50 (read off the curve) goes with a more potent agent. For the molecule B2, the “EC50 (read off the curve)” value in test [6] is around 20 ng/mL.

B3: GC33 (antibody, V domains shown)
VH: QVQLQQSGAELVRPGASVKLSCKASGYTFTDYEMHWVKQTPVHGLKWIGALDPKTGDTAYSQKFKGKATLTADKSSSTAYMELRSLTSEDSAVYYCTRFYSYTYWGQGTLVTVSA
VL: B2 VL with S7T, T14S, P15L, E17D, P18Q, A34G, Q50K, V88L, Y92F, Q105S
notes: Mouse monoclonal from a mouse immunized with GC-3; also called GC33 antibody
On to B3, for which the binding result in test [1] is “binds”. In addition, the figures for the “FACS X-mode value of the histogram” value in [2], in test [4] and in test [5] were 52, 82.7 and 8.4, respectively. In addition, in test [3], the EC50 was 0.24 nM.

B4: modified humanized GC33 (H chain ver.k, L chain G34K) (antibody, human IgG1, V domains shown)
VH: B2 VH
VL: B2 VL with A34K
notes: as for B2
Consider B4, for which, in test [7], the “EC50 (read off the curve)” value is around 20 ng/mL.

B5: modified humanized GC33 (H chain ver.k, L chain G34I) (antibody, human IgG1, V domains shown)
VH: B2 VH
VL: B2 VL with A34I
notes: as for B2
As to B5, the “EC50 (read off the curve)” value in test [7] is around 20 ng/mL.

B6: modified humanized GC33 (H chain ver.k, L chain G34D) (antibody, human IgG1, V domains shown)
VH: B2 VH
VL: B2 VL with A34D
notes: as for B2
For the molecule B6, in [6], the half-maximal effective concentration (EC50 (read off the curve)) was around 20 ng/mL.

B7: modified humanized GC33 (H chain ver.k, L chain G34W) (antibody, human IgG1, V domains shown)
VH: B2 VH
VL: B2 VL with A34W
notes: as for B2
Consider B7, for which the “EC50 (read off the curve)” value in [8] is around 20 ng/mL.

B8: modified humanized GC33 (H chain ver.k, L chain G34Y) (antibody, human IgG1, V domains shown)
VH: B2 VH
VL: B2 VL with A34Y
notes: as for B2
Regarding B8, the 50% effective concentration (EC50 (read off the curve)) in [8] was around 20 ng/mL.

B9: M1E7 (antibody, human IgG1, kappa, V domains shown)
VH: EVQLQQSGPELVKPGASVKISCKASGYSFTGYYMHWVKQSPEKSLEWIGEINPSTGGTTYNQKFKAKATLTVDKSSSTAYMQLKSLTSEDSAVYYCARRGGLTGTSFFAYWGQGTLVTVSA
VL: DVVMTQTPLSLSVTIGQPASISCKSSQSLLYSNGKTYLNWLQQRPGQAPKHLMYQVSKLDPGIPDRFSGSGSETDFTLKISRVEAEDLGVYYCLQSTYYPLTFGAGTKLELKR
notes: Mouse monoclonal from hybridoma; also called M1E07
For orientation: Kd means the equilibrium constant for the complex coming apart. A low value points to a tighter complex. What is called koff is a measure of how fast the partners let go of each other. As a reminder, the kon is a measure of how fast the partners come together. Regarding B9, the “Inhibition of the binding of indicated biotin-Mab to sGPC3 core (%)” value (shortened to “Inhibition of the binding … (%)”) in [9] was 26%; in test [11], 38%; in test [12] it was 6.4%; in [13], 14.3%; in test [14], 83.9%; in [16], 14.8%. Further, the “Inhibition of the binding … (%)” value in test [19] came out at 9%; in test [23], 7.7%. Moreover, the “FACS X-mode value of the histogram” value in test [10] worked out at 28; in test [18], 16; in [21], 5. For the same molecule, the dissociation constant (Kd) in test [15] is 2.8 nM. For the same molecule, the dissociation rate constant (koff) in [15] amounted to 0.000427 s⁻¹. The molecule further registered an on-rate (kon) in test [15] of 150000 M⁻¹ s⁻¹. Further, the binding result in test [17] and in test [20] was “no binding” each time. This molecule also gave a half-maximal effective concentration (EC50) in [22] of 0.96 nM.

B10: GC199 (antibody, V domains shown)
VH: QIQLEQSGPELKKPGETVKISCKASGYIFRDYSMHWVKQAPGKGLKWMGWINTETGEPTYADDFKGRFAFSLETSASTAYLQINNLKNEDTATYFCTSLYWGQGTLVTVSA
VL: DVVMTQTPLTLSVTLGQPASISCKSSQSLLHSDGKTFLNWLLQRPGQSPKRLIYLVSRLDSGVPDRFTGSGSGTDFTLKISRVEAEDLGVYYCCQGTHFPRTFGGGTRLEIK
notes: Mouse monoclonal from a mouse immunized with GC-3; also called GC199 antibody
Take B10: the binding result in test [1] was “binds”. Moreover, the “FACS X-mode value of the histogram” value in test [2] amounted to 12.2; in test [4], 15.5; in test [5], 2.4. The molecule further returned a half-maximal effective concentration (EC50) in test [3] of 0.1 nM.

B11: M11F1 (antibody, V domains shown)
VH: QVTLKESGPGILQPSQTLSLTCSFSGFSLSIYGMGVGWIRQPSGKGLEWLANIWWNDDKYYNSALKSRLTISKDTSNNQVFLKISSVDTADTATYYCAQIGYFYFDYWGQGTTLTVSS
VL: DVVMTQTPLSLPVSLGDQASISCRSSQSLVHSNGNTYLHWYLQKPGQSPKLLIYKVSNRFSGVPDRFSGSGSGTDFTLKISRVEAEDLGVYFCSQSTHVPWTFGGGTKLEIK
notes: Mouse monoclonal from hybridoma
Take B11: the “Inhibition of the binding … (%)” value was found to be 2% in test [9]; 20.9% in test [11]; 5.4% in test [12]; 81.8% in [13]; 3.9% in test [14]; 24.6% in test [16]. In addition, the “Inhibition of the binding … (%)” value in [19] is -1.5%; in test [23], 5.6%. Further, the “FACS X-mode value of the histogram” value in [10] worked out at 9; in test [18], 4; in test [21], 2. Moreover, the Kd in [15] was 0.2 nM. The molecule further returned a koff in test [15] of 3.5e-05 s⁻¹. In test [15], this molecule came in with a kon of 140000 M⁻¹ s⁻¹. In addition, the binding result is “no binding” in test [17] and “binds” in test [20]. The molecule further had an EC50 in [22] of 2.17 nM.
